Measured values published in US20240239915A1 (Zymeworks, published 2024).

Experiments:
[1] = target: T1, human FcRn (human neonatal Fc receptor large subunit p51 and beta2-microglobulin), biotinylated (human, UniProt P55899 24-297; P61769 21-119, biotinylated (site not stated)); experiment: BLI (Octet RED384), biotinylated FcRn on streptavidin biosensor, binding at pH 6.0, dissociation at pH 7.4
[2] = target: T2, Recombinant Cynomolgus Fc gamma RIIB protein (R&D Systems), His-tagged (cynomolgus); experiment: SPR (Biacore T200); receptor immobilized directly on CM5 chip, antibody as analyte at 4.7 µM
T2 construct: also called cynomolgus FcγRIIb; cFcγRIIb
T2 chain: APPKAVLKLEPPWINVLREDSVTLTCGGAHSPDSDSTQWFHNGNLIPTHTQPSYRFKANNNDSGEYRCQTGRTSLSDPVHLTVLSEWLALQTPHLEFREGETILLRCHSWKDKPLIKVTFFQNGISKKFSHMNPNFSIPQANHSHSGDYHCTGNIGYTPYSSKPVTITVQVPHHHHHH

[3] = target: T3, Recombinant Cynomolgus Fc gamma RIIA/CD32a Protein (R&D Systems), His-tagged (cynomolgus); experiment: as above
T3 construct: also called cynomolgus FcγRIIa; cFcγRIIa
T3 chain: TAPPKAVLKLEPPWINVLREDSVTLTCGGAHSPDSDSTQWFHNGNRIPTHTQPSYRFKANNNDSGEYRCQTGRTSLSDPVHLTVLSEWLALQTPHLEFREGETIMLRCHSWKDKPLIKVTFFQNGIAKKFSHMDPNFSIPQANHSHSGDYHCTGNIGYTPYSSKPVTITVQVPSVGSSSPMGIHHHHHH

[4] = target: T4, Recombinant Cynomolgus Fc gamma RIII/CD16 Protein (R&D Systems), His-tagged (cynomolgus, UniProt Q8SPW2 17-208); experiment: as above
T4 construct: also called cynomolgus FcγRIII; cFcγRIII
T4 chain: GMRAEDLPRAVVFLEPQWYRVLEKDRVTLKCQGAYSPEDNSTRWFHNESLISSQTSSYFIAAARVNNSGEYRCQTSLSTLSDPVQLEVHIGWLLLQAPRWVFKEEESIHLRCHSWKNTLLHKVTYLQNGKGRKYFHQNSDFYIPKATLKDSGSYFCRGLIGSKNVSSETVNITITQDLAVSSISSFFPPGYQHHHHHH

[5] = target: T1, human FcRn (human neonatal Fc receptor …); experiment: BLI (Octet RED384), biotinylated FcRn on streptavidin biosensor, binding and dissociation at pH 6.0
[6] = target: T5, Recombinant Human Fc gamma RIIB/C (CD32b/c) Protein (R&D Systems), His-tagged (human, UniProt P31994 46-217); experiment: SPR (Biacore T200); receptor immobilized directly on CM5 chip, antibody as analyte at 4.7 µM
T5 construct: also called human FcγRIIb/c; hFcγRIIb/c
T5 sequence: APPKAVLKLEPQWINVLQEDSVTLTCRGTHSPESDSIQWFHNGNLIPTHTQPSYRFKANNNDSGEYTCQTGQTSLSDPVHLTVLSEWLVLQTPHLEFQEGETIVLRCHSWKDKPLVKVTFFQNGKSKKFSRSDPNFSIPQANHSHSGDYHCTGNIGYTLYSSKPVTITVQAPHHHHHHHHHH

[7] = target: T6, Recombinant Human Fc gamma RIIIB/CD16b Protein (R&D Systems), His-tagged (human, UniProt O75015 20-208); experiment: as above
T6 construct: also called human FcγRIIIb; hFcγRIIIb
T6 chain: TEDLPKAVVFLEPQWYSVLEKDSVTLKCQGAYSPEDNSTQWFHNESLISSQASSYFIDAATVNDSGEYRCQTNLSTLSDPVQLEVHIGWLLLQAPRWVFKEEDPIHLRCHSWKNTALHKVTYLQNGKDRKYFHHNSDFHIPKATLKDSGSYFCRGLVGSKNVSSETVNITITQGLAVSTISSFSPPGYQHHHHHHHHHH

[8] = target: T7, Recombinant Human Fc gamma RIIA/CD32a (H167) Protein (R&D Systems), His-tagged (human, UniProt P12318 34-218); experiment: as above
T7 construct: also called human FcγRIIa (H167); hFcγRIIa (H167)
T7 sequence: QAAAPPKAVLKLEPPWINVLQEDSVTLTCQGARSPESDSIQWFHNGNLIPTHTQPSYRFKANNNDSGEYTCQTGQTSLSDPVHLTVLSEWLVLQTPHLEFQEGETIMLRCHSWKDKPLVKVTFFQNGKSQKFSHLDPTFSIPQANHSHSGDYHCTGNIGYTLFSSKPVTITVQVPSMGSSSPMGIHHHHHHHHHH

[9] = target: T8, Recombinant Human Fc gamma RIIIA/CD16a (V176F) Protein (R&D Systems), His-tagged (human, UniProt P08637 17-208); experiment: as above
T8 construct: no further substitution applied; also called human FcγRIIIa (V176F); hFcγRIIIa (V176F)
T8 sequence (P08637 other isoform, or with tags, fused parts or gaps V176F V176F): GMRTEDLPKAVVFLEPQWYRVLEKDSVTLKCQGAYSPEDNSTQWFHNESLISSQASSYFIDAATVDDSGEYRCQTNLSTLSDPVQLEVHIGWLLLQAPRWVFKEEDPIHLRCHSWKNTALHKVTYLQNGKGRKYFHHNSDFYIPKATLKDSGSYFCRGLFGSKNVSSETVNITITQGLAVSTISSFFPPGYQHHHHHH

[10] = target: T9, Recombinant Human Fc gamma RIIIA/CD16a protein (R&D Systems), His-tagged (human, UniProt P08637 17-208); experiment: as above
T9 construct: also called human FcγRIIIa; hFcγRIIIa
T9 sequence (P08637 other isoform, or with tags, fused parts or gaps): as the sequence (P08637 other isoform, or with tags, fused parts or gaps V176F V176F) above, with F160V counted along it

[11] = target: T7, Recombinant Human Fc gamma RIIA/CD32a …; experiment: SPR (Biacore T200), RU at 4.7 µM antibody
[12] = target: T10, Recombinant Human Fc gamma RI/CD64 Protein, CF (R&D Systems), His-tagged (human, UniProt P12314 16-288); experiment: SPR (Biacore T200), RU at 4.7 µM antibody
T10 construct: also called human FcγRI; hFcγRI
T10 sequence (P12314 other isoform, or with tags, fused parts or gaps): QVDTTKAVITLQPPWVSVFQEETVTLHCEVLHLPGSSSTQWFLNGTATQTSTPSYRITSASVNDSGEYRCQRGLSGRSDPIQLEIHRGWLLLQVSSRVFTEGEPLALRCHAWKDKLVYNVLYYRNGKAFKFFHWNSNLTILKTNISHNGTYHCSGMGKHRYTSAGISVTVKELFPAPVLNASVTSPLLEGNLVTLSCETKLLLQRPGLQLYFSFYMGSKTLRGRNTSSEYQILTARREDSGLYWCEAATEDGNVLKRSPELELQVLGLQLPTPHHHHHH

koff [1]: 2.2 s⁻¹
binding response (RU) [2]: 89 RU
binding response (RU) [3]: 19 RU
binding response (RU) [4]: 3.8 RU
Kd [5]: 5.8 nM
binding response (RU) [6]: 15 RU
binding response (RU) [7]: -0.3 RU
binding response (RU) [8]: 8.8 RU
binding response (RU) [9]: -4.4 RU
binding response (RU) [10]: -2.7 RU
RU value relative to the other variants [11]: ≤ 0.5 fold
RU value relative to the LALA-DA variant [12]: ~0.1 fold
B1: L234A/L235A/D265G (LALA-DG) variant of IgG1 WT of the anti-EGFR antibody panitumumab (antibody)
heavy: QVQLQESGPGLVKPSETLSLTCTVSGGSVSSGDYYWTWIRQSPGKGLEWIGHIYYSGNTNYNPSLKSRLTISIDTSKTQFSLKLSSVTAADTAIYYCVRDRVTGAFDIWGQGTMVTVSSASTKGPSVFPLAPSSKSTSGGTAALGCLVKDYFPEPVTVSWNSGALTSGVHTFPAVLQSSGLYSLSSVVTVPSSSLGTQTYICNVNHKPSNTKVDKRVEPKSCDKTHTCPPCPAPEAAGGPSVFLFPPKPKDTLMISRTPEVTCVVVGVSHEDPEVKFNWYVDGVEVHNAKTKPREEQYNSTYRVVSVLTVLHQDWLNGKEYKCKVSNKALPAPIEKTISKAKGQPREPQVYTLPPSREEMTKNQVSLTCLVKGFYPSDIAVEWESNGQPENNYKTTPPVLDSDGSFFLYSKLTVDKSRWQQGNVFSCSVMHEALHNHYTQKSLSLSPGK
light: not shown
notes: Mutations in both CH2 domains; positions are EU numbers
